Measured values: the supplement of paper PMC12042874
± gives the uncertainty stated by the source.

Assay: amyloid nucleation score (Sup35N fusion, yeast selection) (log enrichment); library NNK1; higher = more nucleation; inactive = no reads after selection
Method in brief: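 Growth for 7 days at 30°C on medium lacking adenine and uracil followed a 24-hour induction with 100 μM copper sulfate of psi-negative yeast expressing peptides of 20 random codons fused to Sup35N. Input and output plasmid inserts were sequenced with Illumina, and sequences with under 100 input reads were excluded. Nucleation score is the DiMSum log enrichment of output over input reads, centred on the mode score of non-aggregating sequences.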
LVVLL gave an amyloid nucleation score of -0.108 ± 0.71. For SVTALKLDSSLQKSRDLVGG, the amyloid nucleation score was -0.233 ± 1.1. For HSRLLASYS, the amyloid nucleation score was 1.34 ± 0.43. For YNGGCACMEAVMRFGGFFTL, the amyloid nucleation score was -0.066 ± 0.28. In the case of SYLFRSRRIRYFRFMHN, the amyloid nucleation score is reported as 3.17 ± 0.12. DDSGRL gave an amyloid nucleation score of 0.494 ± 0.59. For NLILIR, the amyloid nucleation score was 0.72 ± 0.61. YFHPLTKLI gave an amyloid nucleation score of -0.288 ± 0.82. In the case of DDLTVMVGPYMGGS, the amyloid nucleation score is reported as -0.82 ± 1.1. Substance LLPWGYD has an amyloid nucleation score of 2.77 ± 0.15. For SLDLL, the amyloid nucleation score was -0.244 ± 0.46. In the case of FYLRSSTNEPRENNVNLALY, the amyloid nucleation score is reported as -0.345 ± 1.7. In the case of CVFGYCVALHF, the amyloid nucleation score is reported as 6.18 ± 0.073. Work on SATNCRTGKDCRERGHTLGL yielded an amyloid nucleation score of 0.628 ± 0.33. In the case of EITFPRAMWANRTTTMDRIM, the amyloid nucleation score is reported as -0.036 ± 0.4. In the case of FVYCNAAIAISSFGTWEPKG, the amyloid nucleation score is reported as 2.9 ± 0.1. With ANSVIFDGRSKGLAKHTVSY the amyloid nucleation score was -0.276 ± 0.65. MQLTFAVKLGENRE showed an amyloid nucleation score of 2.77 ± 0.079. In the case of SGHFILHGFYFCYKKCALIY, the amyloid nucleation score is reported as 1.06 ± 0.81. Work on FCRGKPRRLVP yielded an amyloid nucleation score of -0.219 ± 0.67. Substance LSYLGLLP has an amyloid nucleation score of 0.373 ± 0.62. With FVGRCLNMKTCRRCLLSWDN the amyloid nucleation score was 0.128 ± 1.6. MNLQYHILN gave an amyloid nucleation score of -0.345 ± 1.7. Work on KWRNLSS yielded an amyloid nucleation score of 0.631 ± 0.89. Substance RSPFWRDVKNKITVSPIFAN has an amyloid nucleation score of 0.945 ± 0.61. In the case of IYCEEFMLEMTSRIRV, the amyloid nucleation score is reported as -0.976 ± 0.47. CFVGYQW showed an amyloid nucleation score of 0.622 ± 0.63. For VVSYTVQGGRSSHMANWG, the amyloid nucleation score was 0.35 ± 0.92. VMLSSSGYELHVWRVGGSDG gave an amyloid nucleation score of 0.093 ± 0.75. In the case of CAVHYKLCDLYHT, the amyloid nucleation score is reported as 0.381 ± 0.5. SMMYKVSFGGGVFVLKLLVK gave an amyloid nucleation score of 0.266 ± 0.3. VYCSLPRFRHLTSSILVTII showed an amyloid nucleation score of -0.07 ± 1.4. Substance NGLGFLNGRSSFGVGCYY has an amyloid nucleation score of -0.486 ± 0.28. FIESVL gave an amyloid nucleation score of 1.14 ± 0.67. WVRLINSGGQSYFRCGEGRS showed an amyloid nucleation score of 0.654 ± 1.2. CGKSIEETSLRNPIPGNVLG showed an amyloid nucleation score of 0.476 ± 0.55. In the case of TALSFRYVYLI, the amyloid nucleation score is reported as -0.612 ± 0.61. Substance CCYWMASALENRSRRIRLHV has an amyloid nucleation score of -0.612 ± 0.84. Work on HIFVMIYVLMEDGSKKLTSM yielded an amyloid nucleation score of 0.99 ± 0.85. LSMWSRHSMTPRFFLGLTPV showed an amyloid nucleation score of 0.766 ± 0.69. For RVDPLV, the amyloid nucleation score was “inactive”. In the case of HFVCYNCWGYICTVCLTSRE, the amyloid nucleation score is reported as 8.228 ± 0.065. In the case of AFCRCNNRKVEQLMNLCGVF, the amyloid nucleation score is reported as -0.771 ± 0.49. Substance IQFIDRPDHIARRLVWFRIG has an amyloid nucleation score of 0.351 ± 0.27. Work on VKTNWLNWWLLNGLRASRCL yielded an amyloid nucleation score of 0.062 ± 0.58. Substance RAPLLMSVTLLRHQFCTRME has an amyloid nucleation score of 1.8 ± 0.21. In the case of RSEVYFNWGLNASMEVSPLC, the amyloid nucleation score is reported as -0.02 ± 0.41. Substance YDNWVVGNYGLSAERICRVE has an amyloid nucleation score of 0.085 ± 0.77. Substance FAFTIFPCYYWDLNCLRFQH has an amyloid nucleation score of 6.549 ± 0.047. With YGVEMLPHISNAVTLFFGN the amyloid nucleation score was 8.133 ± 0.057. Substance VWRGRGCNHLYVMEEKLVGV has an amyloid nucleation score of 0.623 ± 0.41. With TFSEFAVIDIRYIWGTLFVS the amyloid nucleation score was 0.762 ± 0.38. With PLMWS the amyloid nucleation score was 0.251 ± 0.29. Work on FGDWGCRRRNVSA yielded an amyloid nucleation score of -0.269 ± 0.37. For LVHKLFDIRRCPTAFSNWTM, the amyloid nucleation score was 1.29 ± 0.47. With LRGVPLYFDGRHMWYAFSRY the amyloid nucleation score was -0.424 ± 0.47. With SCHIKK the amyloid nucleation score was 0.12 ± 0.39. For SKVSVCNPSSLGSRVGGLAN, the amyloid nucleation score was “inactive”. For SKESKSSEARLLIR, the amyloid nucleation score was -1.39 ± 1.3. STRMVYR showed an amyloid nucleation score of -0.261 ± 0.95. With WFRRLVTFSYNGWSYLSD the amyloid nucleation score was -0.779 ± 0.73. HKNEYSGFKRSKLLYRARMR showed an amyloid nucleation score of 0.964 ± 0.68. For LRKDGSGK, the amyloid nucleation score was 1.06 ± 0.21. For MHYWGTGKHQINTWNMILFI, the amyloid nucleation score was 3.95 ± 0.11. With ENDYITCQMSQSVQNVVVVK the amyloid nucleation score was 0.647 ± 0.43. QNDVSGKLGNKLSSVCSLRR gave an amyloid nucleation score of 0.405 ± 0.95. With TYPYFDWPFRTRRLMEVSET the amyloid nucleation score was -0.4 ± 0.63. For GHHVRLLFLCVHTISYMESR, the amyloid nucleation score was 0.582 ± 0.9. With CYRPFSQNLPSVMLEFILAE the amyloid nucleation score was 0.146 ± 0.27. With YHSSKGCIVCCR the amyloid nucleation score was -0.391 ± 0.24. With YRCGECNSSVMCMGLRCLWM the amyloid nucleation score was 5.87 ± 0.059. In the case of LSNSSEVPHNSVNINDFVWD, the amyloid nucleation score is reported as “inactive”.
